Results from patent US20070027082A1 (UNIVERSITY OF TENNESSEE RESEARCH FOUNDATION, published 2007).

T1: type I IL-1 receptor on murine EL4 6.1 cells (murine) (UniProt P13504)
T1 sequence (looked up): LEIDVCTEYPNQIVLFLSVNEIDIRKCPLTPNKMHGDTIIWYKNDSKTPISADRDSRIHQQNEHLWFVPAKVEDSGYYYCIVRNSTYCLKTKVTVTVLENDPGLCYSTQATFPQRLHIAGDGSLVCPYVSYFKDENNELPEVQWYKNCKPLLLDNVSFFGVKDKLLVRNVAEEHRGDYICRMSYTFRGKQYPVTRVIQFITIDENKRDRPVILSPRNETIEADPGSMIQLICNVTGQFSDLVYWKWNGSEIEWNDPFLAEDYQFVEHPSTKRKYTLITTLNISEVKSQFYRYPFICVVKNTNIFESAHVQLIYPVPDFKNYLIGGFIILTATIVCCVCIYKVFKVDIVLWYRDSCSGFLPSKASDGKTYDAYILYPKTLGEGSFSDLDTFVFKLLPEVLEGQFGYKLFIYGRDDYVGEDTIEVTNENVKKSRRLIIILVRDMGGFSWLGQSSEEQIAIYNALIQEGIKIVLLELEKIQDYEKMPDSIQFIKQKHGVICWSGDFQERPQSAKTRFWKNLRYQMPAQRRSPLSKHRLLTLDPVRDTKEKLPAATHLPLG

T2: type I IL-1 receptor on murine EL4 6.1 cells (murine, UniProt P13504 20-576)
T2 construct: whole, on cells; Endogenous receptor on the murine T cell line EL4 6.1; also called type I IL-1Rs; IL-1 receptors on murine EL4 6.1 cells
T2 sequence (looked up): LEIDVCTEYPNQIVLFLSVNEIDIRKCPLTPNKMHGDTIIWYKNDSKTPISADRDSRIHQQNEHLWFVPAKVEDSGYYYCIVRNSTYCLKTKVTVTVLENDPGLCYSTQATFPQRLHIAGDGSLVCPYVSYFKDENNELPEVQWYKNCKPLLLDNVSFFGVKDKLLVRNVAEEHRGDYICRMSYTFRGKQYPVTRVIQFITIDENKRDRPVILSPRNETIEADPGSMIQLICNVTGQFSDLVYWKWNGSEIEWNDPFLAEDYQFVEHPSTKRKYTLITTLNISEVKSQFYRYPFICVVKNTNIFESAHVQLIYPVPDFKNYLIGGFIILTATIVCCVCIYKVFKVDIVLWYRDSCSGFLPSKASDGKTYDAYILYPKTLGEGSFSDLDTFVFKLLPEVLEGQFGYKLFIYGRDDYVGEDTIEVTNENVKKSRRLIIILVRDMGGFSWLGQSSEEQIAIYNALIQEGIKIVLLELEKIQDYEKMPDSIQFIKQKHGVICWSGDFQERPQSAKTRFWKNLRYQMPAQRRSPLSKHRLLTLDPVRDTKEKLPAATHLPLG


Key:
[1] = biological target: T1, type I IL-1 receptor on murine EL4 6.1 cells (murine); experiment: competitive radioligand binding on EL4 6.1 cells, 100x excess of competitor
[2] = biological target: T2, type I IL-1 receptor on murine EL4 6.1 …; experiment: competition with [125I] IL-1 beta for type I IL-1R on EL4 6.1 cells
Experimental: IL-1 beta for binding to type I IL-1 receptors on murine cells. EL46.1 cells were incubated at 4° C. in presence of the sodium azide for 2 hr with and without each of the IL-1ra peptides or with soluble human recombinant interleukin Ira (shrIL-1ra) as a control. Cells were then incubated with [¹²⁵I]hrIL-1, transferred to microfuge tubes containing phthalolate oil, centrifuged and free and bound radioactivity determined. Non-specific binding was determined in the presence of 100× excess concentration of cold hrIL-1 beta.

Sequence of soluble human recombinant interleukin 1ra (shrIL-1ra) (P18510 26-177 limits assumed): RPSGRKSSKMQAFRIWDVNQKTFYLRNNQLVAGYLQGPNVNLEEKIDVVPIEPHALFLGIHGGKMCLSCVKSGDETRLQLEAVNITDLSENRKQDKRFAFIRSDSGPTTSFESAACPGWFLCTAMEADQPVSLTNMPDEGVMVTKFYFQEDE

Row | displacement of [125I] IL-1 beta [1] [%] | binding result [2] | Molecule
1 | > 90 |  | soluble human recombinant interleukin 1ra (shrIL-1ra) (from UniProt P18510 26-177) (ligand)
2 |  | no binding | RPSGRKSSKMQAFRIWDVNQKTFYLRNNQLVAGYL (Synthetic peptide representing part of the processed/mature form of human sIL-1ra; also called IL-1ra 1-35; amino terminal IL-1ra peptide) [IL-1ra peptide 1-35 (SEQ ID NO: 13)]
